Where “and” joins values, the source holds several entries; their conditions need not be identical. Identical values can stand only once. Entries after “also recorded” stand apart in the source; their conditions may differ. No end group written: not given here.
Columns and labels:
[1] = molecular target: T1, NLRP1 (Homo sapiens, UniProt Q9C000); assay: NLRP1 oligomerization induced by MDP and ATP, 2D native/SDS gel electrophoresis; assay type: biochemical; conditions: protein at excess (1/10 molar ratio)
T1 sequence (Q9C000 1-1473): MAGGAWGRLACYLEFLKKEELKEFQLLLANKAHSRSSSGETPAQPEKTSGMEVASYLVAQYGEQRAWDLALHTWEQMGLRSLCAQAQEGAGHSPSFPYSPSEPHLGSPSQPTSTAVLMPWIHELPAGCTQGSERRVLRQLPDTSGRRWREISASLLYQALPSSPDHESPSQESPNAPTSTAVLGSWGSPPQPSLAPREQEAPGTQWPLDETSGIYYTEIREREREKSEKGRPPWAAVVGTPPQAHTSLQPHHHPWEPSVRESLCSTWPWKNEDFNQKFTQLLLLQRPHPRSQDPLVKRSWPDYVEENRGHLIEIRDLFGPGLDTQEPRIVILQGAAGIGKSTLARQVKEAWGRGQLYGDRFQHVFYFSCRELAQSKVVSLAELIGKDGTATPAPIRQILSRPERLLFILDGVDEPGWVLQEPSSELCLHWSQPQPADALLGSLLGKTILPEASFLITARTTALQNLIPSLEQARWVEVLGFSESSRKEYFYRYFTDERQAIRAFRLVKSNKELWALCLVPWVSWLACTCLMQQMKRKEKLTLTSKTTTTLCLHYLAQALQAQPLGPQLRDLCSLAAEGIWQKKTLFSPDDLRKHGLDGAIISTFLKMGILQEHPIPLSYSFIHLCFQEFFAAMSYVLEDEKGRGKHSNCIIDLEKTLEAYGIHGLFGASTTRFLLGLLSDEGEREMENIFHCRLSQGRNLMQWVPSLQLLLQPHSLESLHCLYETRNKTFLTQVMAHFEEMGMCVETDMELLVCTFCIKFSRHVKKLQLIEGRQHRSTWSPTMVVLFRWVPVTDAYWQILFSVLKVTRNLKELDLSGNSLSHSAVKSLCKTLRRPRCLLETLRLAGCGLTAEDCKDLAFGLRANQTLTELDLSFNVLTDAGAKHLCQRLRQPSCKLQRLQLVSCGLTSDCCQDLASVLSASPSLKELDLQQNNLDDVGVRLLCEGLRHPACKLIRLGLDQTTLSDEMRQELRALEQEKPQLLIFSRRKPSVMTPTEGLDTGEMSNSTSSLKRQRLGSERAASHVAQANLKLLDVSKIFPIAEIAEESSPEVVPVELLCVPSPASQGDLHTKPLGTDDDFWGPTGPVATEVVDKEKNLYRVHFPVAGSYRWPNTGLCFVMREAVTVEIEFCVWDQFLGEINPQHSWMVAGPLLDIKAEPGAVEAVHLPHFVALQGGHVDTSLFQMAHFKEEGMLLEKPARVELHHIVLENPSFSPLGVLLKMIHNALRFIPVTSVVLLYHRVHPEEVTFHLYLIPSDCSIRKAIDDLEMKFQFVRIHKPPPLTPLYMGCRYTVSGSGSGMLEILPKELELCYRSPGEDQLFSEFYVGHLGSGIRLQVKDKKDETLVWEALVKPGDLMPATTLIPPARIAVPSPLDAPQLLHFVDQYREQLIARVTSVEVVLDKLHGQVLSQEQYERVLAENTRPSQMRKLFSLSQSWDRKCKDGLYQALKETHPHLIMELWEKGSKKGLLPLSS
Experimental: Electrophoresis. Samples were incubated with protein solubilizing solution (40 mM 6-aminocaproic acid, 20 mM Bis-tris) for 30 min at 4° C., mixed with loading buffer (1M 6-aminocaproic acid, 5% Serva blue G), and applied to acrylamide-bis gradient (4-20%) gels (Schagger et al., (1994) Anal Biochem 217, 220-30). Bands of gels corresponding to the entire lane were excised from top to the bottom, incubated 45 min at 25-27° C. in denaturating buffer (1% β-mercaptoethanol, 10% SDS), then washed twice in equilibrating buffer (50 mM Tris. 1% SDS). Bands from gels were set horizontally on a SDS-acrylamide gel, and proteins were separated by electrophoresis (second dimension), then stained with Sypro Ruby. Molecular weight markers included Thyroglobuline, Apoferritin, β-Amylase and BSA (Sigma).
Oligomerization of NLRP1 induced by MDP and ATP can be monitored using 2D gel-electrophoresis analysis, in which the first dimension is non-denaturing and thus preserves macromolecular complexes during electrophoresis and the second dimension contains SDS for subsequent identification of proteins based on their known molecular mass (Faustin, 2007). For these experiments, NLRP1 monomers were incubated with various proteins (GST, GST-Bcl-XL, His6-Bcl-XLΔLoop) at excess, then MDP and ATP were added to induce oligomerization (FIG. 15). […]

[2] = molecular target: T1, NLRP1; assay: FITC-ATP binding to NLRP1 by fluorescence polarization assay (FPA); conditions: protein 1 μM at excess; NLRP1 0.125 μM; FITC-ATP 10 nM; MDP-LD 1 μM
[3] = molecular target: T1, NLRP1; assay: in vitro reconstituted NLRP1 inflammasome: Caspase-1 activity by hydrolysis of Ac-WEHD-AMC; assay type: biochemical; conditions: for concentration-dependence of inhibition of NLRP1-induced Caspase-1 activity: various concentrations of protein or peptide, NLRP1 8.5 nM; for Km: GST-Bcl-2 or GST-Bcl-XL 2 nM, control without inhibitor 2.62±0.35 μM, read-out: Km of Caspase-1 for its substrate Ac-WEHD-AMC in presence of inhibitor; for reduction of affinity (Km) of Caspase-1 for Ac-WEHD-AMC compared to control: in presence of Bcl-2 or Bcl-XL; for Ki: recombinant GST-fusion protein, calculated from Km with/without 2 nM inhibitor, competitive inhibition equation, read-out: inhibitory constant (Ki) for suppression of NLRP1 (NLRP1-induced Caspase-1 activation); for mechanism of NLRP1 inhibition (Lineweaver-Burke analysis): x-axis intercept changed, y-axis intercept unchanged; for IC50: synthetic Bcl-2 peptides, various amounts, sigmoidal fit, read-out: IC50 (concentration to inhibit NLRP1-induced Caspase-1 activity by 50%)
[4] = molecular target: T1, NLRP1; assay: NLRP1-mediated proteolytic processing of pro-Caspase-1 (anti-p10 immunoblot); assay type: biochemical; conditions: molar ratio NLRP1/protein 1/5
[5] = molecular target: T2, Caspase-1 (Homo sapiens, UniProt P29466); assay: activity of purified active p10/p20 Caspase-1 (direct effect); assay type: biochemical; conditions: active p10/p20 Caspase-1 5 nM; test protein/peptide at excess; Ac-WEHD-CHO 10 nM
T2 construct: fully active, proteolytically processed Caspase-1 comprised of p20 and p10 catalytic subunits purified from bacteria; made in house; host or cells: bacteria
T2 sequence (P29466 120-297 limits assumed): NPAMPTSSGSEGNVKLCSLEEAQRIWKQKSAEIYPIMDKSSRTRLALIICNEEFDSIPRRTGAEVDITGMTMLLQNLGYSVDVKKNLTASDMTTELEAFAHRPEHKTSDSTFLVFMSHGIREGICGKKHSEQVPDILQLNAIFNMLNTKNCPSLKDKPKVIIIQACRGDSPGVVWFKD
T2 sequence (P29466 317-404 limits assumed): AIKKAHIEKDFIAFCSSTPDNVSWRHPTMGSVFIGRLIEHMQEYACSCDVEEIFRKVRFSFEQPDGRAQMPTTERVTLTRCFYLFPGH
Experimental: (§1) FIGS. 16A-16E show Bcl-2 Loop peptide inhibits NLRP1. […] Asterisk indicates p<0.05. (B) Purified active p10/p20 Caspase-1 (5 nM) was incubated with or without Bcl-2 Loop peptide 35-83 or Ac-WEHD-CHO (10 nM). […] Asterisks indicate p<0.05.
Caspase activity measurements. […] Proteins were mixed in Caspase-1 buffer (100 mM HEPES, [pH 7.5], 10% Sucrose, 0.1% CHAPS, 1 mM Dithiothreitol) in a final volume of 10 μl in 96-well plates. Various activators were added (ATP, Mg^2+, MDP-LD), adjusting final volume with water. Samples were then incubated for 30 min at 37° C. and Caspase-1 activity was measured using 20 μM fluorometric substrate Ac-WEHD-AMC (Calbiochem). Release of AMC product was monitored continuously by spectrofluorometry in kinetic mode over 1 h at 25-27° C. Rates of catalysis were calculated using the initial slope and Caspase activity was expressed as the change in fluorescence over time derived from the linear phase of reactions. Data were analyzed using the PRISM Statistics software, employing an unpaired t test.
To exclude a direct effect of Bcl-2 and Bcl-XL on Caspase-1, as opposed to NLRP1, the effects of these anti-apoptotic proteins were tested on fully active, proteolytically processed Caspase-1 comprised of p20 and p10 catalytic subunits purified from bacteria (FIG. 11).

[6] = test system: NLRP1ΔLRR; assay: Caspase-1 activation by NLRP1ΔLRR mutant; assay type: biochemical; conditions: peptide 50 nM; Ac-WEHD-CHO 10 nM; NLRP1ΔLRR 8.5 nM
Experimental: as §1
To characterize the sequence of the Bcl-2 loop responsible for inhibiting NLRP1, a series of overlapping 20′mer peptides corresponding to the 35-83 region were synthesized and tested their effects on NLRP1-mediated Caspase-1 activation. […] The effects of the full-loop peptide (35-83) and the active segment (71-90) were specific, as determined by experiments using a NLRP1 mutant lacking the LRRs. […] Finally, the concentration-dependence of NLRP1 inhibition by the 35-83 and 71-90 loop peptides were compared.

Substance	oligomerization of NLRP1 induced by MDP/ATP [1]	reduction of FITC-ATP binding to NLRP1 [2]	concentration-dependence of inhibition of NLRP1-induced Caspase-1 activity [3]	Km [3] [µM]	reduction of affinity (Km) of Caspase-1 for Ac-WEHD-AMC compared to control [3] [fold]	Ki [3]	mechanism of NLRP1 inhibition (Lineweaver-Burke analysis) [3]	MDP/ATP-induced proteolytic processing of pro-Caspase-1 to cleaved p10 subunit [4]	direct effect on activity of fully active processed Caspase-1 [5]	Caspase-1 activation by NLRP1ΔLRR [6]	IC50 [3]
GST: control protein [reference compound]	not affected	negligible effects									
YDNREIVMKYIHYKLSQRGYEW (Synthetic Bcl-2 Loop peptides) [Bcl-2 BH4 domain 9-30, control peptide, reference compound]			negligible activity								
Bcl-XL: anti-apoptotic protein; recombinant GST-fusion lacking C-terminal transmembrane domain	suppressed oligomerization of NLRP1	~60%	essentially complete inhibition	6.05 ± 0.24	2	~10 nM and 10 nM	competitive inhibitors of NLRP1	inhibited	neither Bcl-2 nor Bcl-XL suppressed Caspase-1 activity		
acetyl-Tryptophanyl-Glutamyl-Histidinyl-Aspartyl-aldehyde (Ac-WEHD-aldehyde; SMILES CC(=O)N[C@@H](Cc1c[nH]c2ccccc12)C(=O)N[C@@H](CCC(=O)O)C(=O)N[C@@H](Cc1c[nH]cn1)C(=O)N[C@H](C=O)CC(=O)O) [Ac-WEHD-CHO, reference compound]									completely inhibited; also recorded: potently suppressed the activity of this protease	completely neutralized Caspase-1 activity	
VGAAPPGAAPAPGIFSSQPGHTPHPAASRDPVARTSPLQTPAAPGAAAG [Bcl-2 Loop 35-83]			reducing Caspaes-1 activity to background levels						did not directly inhibit Caspase-1	neither the 35-83 nor the 71-90 loop peptides suppressed Caspase-1 activation by NLRP1ΔLRR	11.4 nM and ~12 nM
Bcl-2: anti-apoptotic protein; recombinant GST-fusion lacking C-terminal transmembrane domain (SEQ ID NO:3/4)		~60%	essentially complete inhibition	5.04 ± 0.5	2	~10 nM and 8.23 nM and 10 nM	competitive inhibitors of NLRP1	inhibited	neither Bcl-2 nor Bcl-XL suppressed Caspase-1 activity		
PLQTPAAPGAAAGPALSPVP [Bcl-2 71-90]			reducing Caspaes-1 activity to background levels							neither the 35-83 nor the 71-90 loop peptides suppressed Caspase-1 activation by NLRP1ΔLRR	9.92 nM and ~10 nM

From patent US20100093623A1, “COMPOSITIONS AND METHODS FOR […]-LIKE RECEPTOR ACTIVITY AND USES THEREOF” (Burnham Institute for Medical Research, priority 2008, published 2010)
